According to patent US20250163169A1, “ANTIBODIES FOR PREVENTING THE CLEAVAGE OF CD95L BY METALLOPROTEASES” (INSTITUT NATIONAL DE LA SANTÉ ET DE LA RECHERCHE MÉDICALE, priority 2022, published 2025):

Tests used:
[1] = system: s-CD95L release from 1A12 cells; experiment: Metalloprotease-cleaved CD95L dosed by ELISA in supernatants of 1A12 cells; type: cell-based; details: 1A12 cells treated 24 hours, vs isotype (anti-myc 9E10 mAb) control
Procedure: (§1) FIG. 2. Monoclonal antibodies targeting the Metalloprotease-Cleavage Sites of CD95L (MCSCs). […] Arrows represent putative cleavage site in CD95L sequence. […] Indicated peptides were injected in mice to generate monoclonal antibodies and three different hybridoma were selected regarding their ability to bind CD95L. […] B. Recombinant Ig-CD95L (100 ng) was pre-incubated for 15 min with indicated antibodies (100 pg/mL) and then treated for 1h with the indicated MMPs. The metalloprotease-cleaved fragment of Ig-CD95L (CD95L devoid of its released Ig domain of gp190) was monitored by immunoblotting. C. CD95L-expressing leukemic T cell 1A12 was incubated for 24 h with indicated antibodies ([…]) or the pan-MMP inhibitor GM6001 (10 μM) and the expression level of membrane-bound CD95L was assessed by flow cytometry. D. Supernatants were harvested from cells treated in C and the metalloprotease-cleaved CD95L was dosed by ELISA (Diaclone).

CD95L cleavage by MMP3 = experiment: Cleavage of recombinant Ig-CD95L by MMP3 in vitro, cleaved fragment monitored by immunoblotting; type: biochemical, Homo sapiens; details: Ig-CD95L 100 ng pre-incubated 15 min with antibody (100 pg/mL), then MMP 1 h
Chain of CD95L cleavage by MMP3 (P48023 103-281 limits assumed): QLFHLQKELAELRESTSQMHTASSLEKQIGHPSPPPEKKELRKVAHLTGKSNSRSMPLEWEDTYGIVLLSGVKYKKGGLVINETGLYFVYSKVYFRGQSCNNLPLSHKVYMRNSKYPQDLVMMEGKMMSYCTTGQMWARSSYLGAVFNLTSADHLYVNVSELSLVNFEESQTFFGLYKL
Procedure: (§2) FIG. 2. Monoclonal antibodies targeting the Metalloprotease-Cleavage Sites of CD95L (MCSCs). A. Left panel: The extracellular region of CD95L encompassing amino acid residues 102 to 281 can be cleaved by metalloproteases at different sites. Arrows represent putative cleavage site in CD95L sequence. Right panel: Using three peptides (peptides 1, 2 and 3) covering most of the MCSCs of CD95L, we have generated monoclonal antibodies. Indicated peptides were injected in mice to generate monoclonal antibodies and three different hybridoma were selected regarding their ability to bind CD95L. According to their affinity for the indicated peptides (assessed using ELISA), the 3C7 epitope should cover the […] sequence (SEQ ID NO:24). […] The metalloprotease-cleaved fragment of Ig-CD95L (CD95L devoid of its released Ig domain of gp190) was monitored by immunoblotting. […] CD95L-expressing leukemic T cell 1A12 was incubated for 24 h with indicated antibodies ([…]) or the pan-MMP inhibitor GM6001 (10 μM) and the expression level of membrane-bound CD95L was assessed by flow cytometry. […]
(§3) We have generated different extracellular regions of CD95L fused to large domains including the Ig domain of the gp190 (LIF receptor). […] The privileged cleavage sites (^113EL^114 for MMPs and ^129KQ^130 for ADAM) were then determined from MS/MS sequencing of the resulting cleavage products. […]

[2] = system: CD95L-expressing leukemic T cell 1A12; experiment: Expression level of membrane-bound CD95L on 1A12 cells by flow cytometry; type: cell-based; details: 24 h, antibodies 10 pg/mL, GM6001 10 μM
Procedure: as §1

CD95L cleavage by MMP2 = experiment: Cleavage of recombinant Ig-CD95L by MMP2 in vitro, cleaved fragment monitored by immunoblotting; type: biochemical, Homo sapiens; details: Ig-CD95L 100 ng pre-incubated 15 min with antibody (100 pg/mL), then MMP 1 h
Chain of CD95L cleavage by MMP2 (P48023 103-281 limits assumed): as above
Procedure: as §2, §3

Jurkat cells = experiment: Jurkat cell death induced by mAb-pre-treated 1A12 cells, drop of mitochondrial transmembrane potential (DIOC6); type: cell-based; details: 1A12 cells pre-treated 24 hours with 10 μg/mL mAb, then 4 hours with Jurkat cells
Procedure: (§4) FIG. 3. Antibody targeting the Metalloprotease-Cleavage Sites of CD95L (MCSCs) blocks the non-apoptotic functions of CD95L without affecting its apoptotic ones. A. WR19L (CD95L−) or 1A12 (CD95L+) cells were placed in the lower chamber of a Boyden chamber assay in the presence of the indicated mAbs ([…]). Triple negative breast cancer cell MDA-MB-231 was added to the upper part of the chamber and cell migration due to the gradient of metalloprotease-cleaved CD95L was evaluated after 24 hours by fixing and staining (Giemsa) migrating cells covering the lower side of the porous membrane. Left panel: Pictures of the Giemsa-stained MDA-MB-231 cells that migrated to the lower side of the membrane in the presence of WR19L (CD95L−) or 1A12 (CD95L+) cells and with isotypic (9E10) or anti-MCSC (3C7) monoclonal antibody. Right panel: Giemsa-stained MDA-MB-231 cells were lysed and absorbance was measured at a wavelength of 560 nm. Values represent the means and SEM of three independently performed experiments. **p<0.01 as calculated using two-tailed Mann-Whitney test. B. Upper panel: Jurkat cells are sensitive to the CD95-mediated apoptotic signal. […] Cell death was monitored by measuring the drop of mitochondrial transmembrane potential (Δψm). […] Cell death was monitored by measuring the drop of mitochondrial transmembrane potential (Δψm). […]

[3] = system: triple negative breast cancer cells MDA-MB-231; experiment: Boyden chamber assay, migration of MDA-MB-231 cells towards 1A12 (CD95L+) cells; type: cell-based; details: 1A12 (CD95L+) cells in lower chamber, mAb 10 pg/mL, 24 hours
Procedure: as §4

Row | Molecule | Concentrations of s-CD95L in supernatant [1] | Cleavage of CD95L by MMP3 in vitro (CD95L cleavage by MMP3) | Expression level of membrane-bound CD95L [2] | Cleavage of CD95L by MMP2 in vitro (CD95L cleavage by MMP2) | Apoptotic function of membrane-bound CD95L (Jurkat cells) | Generation of s-CD95L promoting migration of MDA-MB-231 cells [3]
1 | 3C7: Monoclonal antibody targeting Metalloprotease-Cleavage Sites of CD95L; light chain SEQ ID NO:16, heavy chain SEQ ID NO:17 (antibody, listed as Mus musculus, V domains shown) VH: QVQLQQSGAELAKPGASVKMSCKTSGYTFTSYWMHWVKQRPGQGLEWIGYINPNTGYTEYIQRFRDKATLTADKSSGTAYMQLSSLTSEDSAVYYCAVDLGYWGQGTLVTVSA VL: DIVMTQSPSSLAMSVGQKVTMSCKSSQSLLSSRTQKHYLAWYQQKPGQSPKLLVYFTSTRESGVPDRFIGSGSGTDFTLTISSVQAEDLALYYCKQHYNTPWTFGGGTKLEIK | significantly reduced | efficiently abrogated the cleavage | augmentation of m-CD95L similar to that observed with the broad spectrum MMP inhibitor GM6001 | efficiently abrogated the cleavage | did not prevent the apoptotic function | inhibited
2 | 9F5: Monoclonal antibody targeting Metalloprotease-Cleavage Sites of CD95L; light chain SEQ ID NO:18, heavy chain SEQ ID NO:19 (antibody, listed as Mus musculus, V domains shown) VH: QVQLQQSGAELAKPGASVKMSCKASGYTFTTYWMHWVKQRPGQDLEWIGYINPRNGYTEYNQNFKDKATLTADKSSTTAFMQLSSLTSEDSALYYCAVDLGYWGQGTLVTVSA VL: DIVMTQSPSSLAMSVGQKVTMNCKSSQSLLSSRNQKTYLAWYQQKPGQSPKLLVYFTSTRASGVPDRFIGSGGTDFTLTISSVQAEDLALYYCQQHYNTPWTFGGGTKLEIK |  | efficiently abrogated the cleavage | did not alter | efficiently abrogated the cleavage |  | 
